From publication PMC6599478

Assays:
[1] = molecular target: HIV-1 clade B Tier 1A chronic virus MN.3 gp120 Env (HIV-1 (clade B, MN.3)) (UniProt P05877)
[2] = molecular target: HIV-1 MN.3 Env with the glycan mutation N332A, on pseudovirus (HIV-1 (clade B, MN.3)) (UniProt P05877)

## recombinant full length Tenascin-C, large isoform (TNC-L) (from UniProt P24821 23-2201) (natural protein)
[1]
  IC50 of neutralisation of wild type HIV-1 MN.3 virus, TZM-bl reporter cells: 31 mg/L

## recombinant full length Tenascin-C, large isoform (TNC-L), P24821 23-2201
[2]
  IC50 of neutralisation of HIV-1 MN.3 N332A pseudovirus, TZM-bl reporter cells: 113 mg/L
